Laboratory results published in the supplement of paper PMC9112550, “Optimization of the antimicrobial peptide Bac7 by deep mutational scanning” (BMC Biology, 2022).

Test system: Escherichia coli TOP10
Assay: shrunken log2 fold change of peptide-encoding DNA abundance (4.5 h post-induction vs induction); higher = less antimicrobial activity (less host growth inhibition)
Details: time post-induction: 4.5 h; library: site-saturation at positions 5, 18, 19, 20
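Further: peptides expressed intracellularly from a pBAD plasmid library in pooled LB shake-flask culture, induced with 0.3% L-arabinose, DNA abundance read by NGS, three biological replicates, DESeq2 with apeglm shrinkage.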

RRIRKRPPRLPRPRPRPPSWPRP
shrunken log2 fold change: 0.401

RRIRCRPPRLPRPRPRPDFAPRP
shrunken log2 fold change: 0.115

RRIRSRPPRLPRPRPRPYHRPRP
shrunken log2 fold change: -0.507

RRIRGRPPRLPRPRPRPDAEPRP
shrunken log2 fold change: 3.37

RRIRKRPPRLPRPRPRPLGPPRP
shrunken log2 fold change: 0.749

RRIRMRPPRLPRPRPRPALFPRP
shrunken log2 fold change: 0.356

RRIRVRPPRLPRPRPRPTLIPRP
shrunken log2 fold change: 0.0816

RRIRRRPPRLPRPRPRPEEVPRP
shrunken log2 fold change: 0.0988

RRIRLRPPRLPRPRPRPHDNPRP
shrunken log2 fold change: -0.526

RRIRGRPPRLPRPRPRPCEPPRP
shrunken log2 fold change: 0.241

RRIRGRPPRLPRPRPRPETFPRP
shrunken log2 fold change: 1.08

RRIRQRPPRLPRPRPRPQYVPRP
shrunken log2 fold change: 0.0318

RRIRFRPPRLPRPRPRPNRPPRP
shrunken log2 fold change: -0.0705

RRIRTRPPRLPRPRPRPIFQPRP
shrunken log2 fold change: -0.192

RRIRIRPPRLPRPRPRPACMPRP
shrunken log2 fold change: -0.0966

RRIRERPPRLPRPRPRPIYLPRP
shrunken log2 fold change: -0.649

RRIRSRPPRLPRPRPRPAWPPRP
shrunken log2 fold change: 0.49

RRIRFRPPRLPRPRPRPWIEPRP
shrunken log2 fold change: -0.224

RRIRDRPPRLPRPRPRPFCQPRP
shrunken log2 fold change: -0.00439

RRIRLRPPRLPRPRPRPYPLPRP
shrunken log2 fold change: -0.413

RRIRWRPPRLPRPRPRPMRWPRP
shrunken log2 fold change: 0.648

RRIRPRPPRLPRPRPRPLRDPRP
shrunken log2 fold change: 0.522

RRIRYRPPRLPRPRPRPESRPRP
shrunken log2 fold change: -0.12

RRIRARPPRLPRPRPRPQSKPRP
shrunken log2 fold change: 0.0474

RRIRIRPPRLPRPRPRPRWHPRP
shrunken log2 fold change: 0.139

RRIRCRPPRLPRPRPRPLGAPRP
shrunken log2 fold change: 0.444

RRIRCRPPRLPRPRPRPYDHPRP
shrunken log2 fold change: -0.797

RRIRCRPPRLPRPRPRPMKCPRP
shrunken log2 fold change: -0.173

RRIRVRPPRLPRPRPRPPRTPRP
shrunken log2 fold change: 0.331

RRIRDRPPRLPRPRPRPLDYPRP
shrunken log2 fold change: -0.242

RRIRFRPPRLPRPRPRPAPLPRP
shrunken log2 fold change: 0.516

RRIRCRPPRLPRPRPRPPSSPRP
shrunken log2 fold change: -0.0857

RRIRGRPPRLPRPRPRPYDHPRP
shrunken log2 fold change: -0.181

RRIRYRPPRLPRPRPRPGICPRP
shrunken log2 fold change: -0.179

RRIRWRPPRLPRPRPRPMSDPRP
shrunken log2 fold change: 0.0237

RRIRTRPPRLPRPRPRPMRAPRP
shrunken log2 fold change: 1

RRIRFRPPRLPRPRPRPDNKPRP
shrunken log2 fold change: -0.853

RRIRRRPPRLPRPRPRPWDSPRP
shrunken log2 fold change: 0.0548

RRIRRRPPRLPRPRPRPAGCPRP
shrunken log2 fold change: 0.437

RRIRMRPPRLPRPRPRPEDQPRP
shrunken log2 fold change: 0.0267

RRIRHRPPRLPRPRPRPQMYPRP
shrunken log2 fold change: -0.0219

RRIRCRPPRLPRPRPRPCGFPRP
shrunken log2 fold change: -0.29

RRIRRRPPRLPRPRPRPMYEPRP
shrunken log2 fold change: -0.034

RRIRKRPPRLPRPRPRPERCPRP
shrunken log2 fold change: 0.559

RRIRMRPPRLPRPRPRPGGPPRP
shrunken log2 fold change: 0.119

RRIRYRPPRLPRPRPRPYINPRP
shrunken log2 fold change: -1.69

RRIRERPPRLPRPRPRPCKLPRP
shrunken log2 fold change: -0.187

RRIRHRPPRLPRPRPRPRHTPRP
shrunken log2 fold change: -0.0794

RRIRERPPRLPRPRPRPTAPPRP
shrunken log2 fold change: -0.043

RRIRSRPPRLPRPRPRPFQFPRP
shrunken log2 fold change: -0.157

RRIRFRPPRLPRPRPRPAAYPRP
shrunken log2 fold change: -0.341

RRIRCRPPRLPRPRPRPSEQPRP
shrunken log2 fold change: -0.0681

RRIRARPPRLPRPRPRPYKYPRP
shrunken log2 fold change: -0.227

RRIRARPPRLPRPRPRPYQWPRP
shrunken log2 fold change: -0.0841

RRIRGRPPRLPRPRPRPRGYPRP
shrunken log2 fold change: 0.382

RRIRNRPPRLPRPRPRPTNTPRP
shrunken log2 fold change: -0.34

RRIRSRPPRLPRPRPRPTTFPRP
shrunken log2 fold change: -0.272

RRIRYRPPRLPRPRPRPHHRPRP
shrunken log2 fold change: -0.306

RRIRIRPPRLPRPRPRPWLIPRP
shrunken log2 fold change: 0.0717

RRIRVRPPRLPRPRPRPGRHPRP
shrunken log2 fold change: 0.0728

RRIRGRPPRLPRPRPRPQVLPRP
shrunken log2 fold change: 0.0422

RRIRRRPPRLPRPRPRPNLPPRP
shrunken log2 fold change: 0.0123

RRIRPRPPRLPRPRPRPPWMPRP
shrunken log2 fold change: 0.407

RRIRERPPRLPRPRPRPYSVPRP
shrunken log2 fold change: -0.114

RRIRHRPPRLPRPRPRPFFGPRP
shrunken log2 fold change: -0.0142

RRIRFRPPRLPRPRPRPSDFPRP
shrunken log2 fold change: -0.487

RRIRMRPPRLPRPRPRPLQHPRP
shrunken log2 fold change: 1.47

RRIRMRPPRLPRPRPRPEPQPRP
shrunken log2 fold change: 2.17

RRIRERPPRLPRPRPRPIDVPRP
shrunken log2 fold change: -0.0231

RRIRLRPPRLPRPRPRPNCGPRP
shrunken log2 fold change: -0.0908

RRIRGRPPRLPRPRPRPGHLPRP
shrunken log2 fold change: 0.0503

RRIRRRPPRLPRPRPRPTHIPRP
shrunken log2 fold change: 0.274

RRIRARPPRLPRPRPRPRVFPRP
shrunken log2 fold change: 0.704

RRIRDRPPRLPRPRPRPKHVPRP
shrunken log2 fold change: 0.139

RRIRSRPPRLPRPRPRPRVMPRP
shrunken log2 fold change: -0.171

RRIRTRPPRLPRPRPRPGHHPRP
shrunken log2 fold change: -0.27

RRIRMRPPRLPRPRPRPFSIPRP
shrunken log2 fold change: -0.11

RRIRTRPPRLPRPRPRPHVEPRP
shrunken log2 fold change: 0.0236

RRIRMRPPRLPRPRPRPGPMPRP
shrunken log2 fold change: 1.05

RRIRKRPPRLPRPRPRPMHNPRP
shrunken log2 fold change: -0.136

RRIRCRPPRLPRPRPRPDGEPRP
shrunken log2 fold change: 0.0622

RRIRNRPPRLPRPRPRPINWPRP
shrunken log2 fold change: -0.133

RRIRSRPPRLPRPRPRPNEQPRP
shrunken log2 fold change: 0.0903

RRIRYRPPRLPRPRPRPNFNPRP
shrunken log2 fold change: -0.818

RRIRERPPRLPRPRPRPPKRPRP
shrunken log2 fold change: 0.259

RRIRCRPPRLPRPRPRPYDMPRP
shrunken log2 fold change: -0.726

RRIRERPPRLPRPRPRPQVVPRP
shrunken log2 fold change: -0.42

RRIRARPPRLPRPRPRPTSHPRP
shrunken log2 fold change: -0.016

RRIRERPPRLPRPRPRPMICPRP
shrunken log2 fold change: -0.115

RRIRQRPPRLPRPRPRPYPIPRP
shrunken log2 fold change: -0.00931

RRIRRRPPRLPRPRPRPQYCPRP
shrunken log2 fold change: -0.3

RRIRARPPRLPRPRPRPAFYPRP
shrunken log2 fold change: 0.117

RRIRRRPPRLPRPRPRPFGKPRP
shrunken log2 fold change: 0.0788

RRIRGRPPRLPRPRPRPNSYPRP
shrunken log2 fold change: -0.0855

RRIRHRPPRLPRPRPRPDPSPRP
shrunken log2 fold change: -0.00848

RRIRTRPPRLPRPRPRPMRDPRP
shrunken log2 fold change: 0.00292

RRIRNRPPRLPRPRPRPQLQPRP
shrunken log2 fold change: -0.0979

RRIRVRPPRLPRPRPRPNRIPRP
shrunken log2 fold change: -0.0663

RRIRYRPPRLPRPRPRPFQQPRP
shrunken log2 fold change: -0.0176

RRIRHRPPRLPRPRPRPHQGPRP
shrunken log2 fold change: -0.00197

RRIRWRPPRLPRPRPRPGCHPRP
shrunken log2 fold change: 0.253

RRIRPRPPRLPRPRPRPHCWPRP
shrunken log2 fold change: 0.151

RRIRWRPPRLPRPRPRPPGPPRP
shrunken log2 fold change: 0.599

RRIRARPPRLPRPRPRPCHFPRP
shrunken log2 fold change: -0.0257

RRIRCRPPRLPRPRPRPWQDPRP
shrunken log2 fold change: -0.154

RRIRARPPRLPRPRPRPFYQPRP
shrunken log2 fold change: -0.00727

RRIRCRPPRLPRPRPRPELRPRP
shrunken log2 fold change: 0.0185

RRIRRRPPRLPRPRPRPIPWPRP
shrunken log2 fold change: 0.312

RRIRCRPPRLPRPRPRPDHAPRP
shrunken log2 fold change: -0.0323
